The values below come from PMC5913134, “The IL-33-PIN1-IRAK-M axis is critical for type 2 immunity in IL-33-induced allergic airway inflammation” (Nature Communications, 2018).

In assay [1] the test system is IRAK-M. As to the kind of experiment: IRAK-M nuclear localization in DC2.4 cells. The format is cell-based, C57BL/6. The following applies: stably expressed in DC2.4 cells. As to the method:
Suppl em enta ry Figur e 3. a DAPI IR AK-M Pin1 Mergeb […]
Supplementary Figure 3. Pin1 targets IRAK-M and promotes its nuclear translocation upon IL-33 induction.
(a) Immunostaining for IRAK-M and Pin1 in DC2.4 cells before and after IL-33 treatment. ( b) DC2.4 cells were treated with IL-33 and subjected to nuclear/cytoplasmic fractionation, followed by Western blot for IRAK-M with actin as a cytoplasmic marker and Fox1 as a nuclear marker. C- cytoplasmic; N- Nuclear.
(c) Cytospin slides from BALF of the treated WT mice as indicated, were co stained for DC205 and IRAK-M.
(d) IRAK-M or its mutants S110E or P111A were stably expressed in DC2.4 cells and their localization and Pin1 localization were monitored by immunostaining. (e) GFP-IRAK-M were expressed in Pin1 KO MEFs either with or without RFP-Pin1 as indicated, and their localization was monitored. Scale = 50 µm.
(also on this page, place not known: Control +IL-33: b DAPIe MergeGFP RFP GFP- GFP-IRAK-M/ RFP MergeIRAK-M Pin1DAPI ControlIL-33 Mergec Supplementary Figure IRAK-M IRAK-M (b) IL-33 IRAK-M IRAK-M Pin1) […]

The subject of assay [2] is IRAK-M. The experiment in a line: IRAK-M protein stability, cycloheximide chase. The format is cell-based. The following applies: mutant IRAK-M, WT MEFs; reproduced in DC2.4 cells. As to the method: Fig. 4 PIN1 increases IRAK-M protein stabilization. a After IRAK-M and GFP were coexpressed in WT and PIN1 KO MEFs for 24 h, cells were split equally into 5 dishes. 24 h later cells were treated with cyclohexamide and harvested to monitor IRAK-M, GFP and PIN1 levels at the time points indicated. b Quantification of 3 independent experiments as in a. c WT MEFs stably expressing the TET on inducible short hairpin for PIN1 (shPin1) or pLKO as a control, were expressed with IRAK-M, followed by induction with Doxycycline for 18 h prior to the cyclohexamide chase. d Quantification of 3 independent experiments as in c. e BMDCs from WT or PIN1 KO mice were treated with IL-33 and the levels of IRAK-M were monitored at different time points after induction. f Quantification of 3 independent experiments as in e. g PIN1 KO MEFs were expressed with IRAK-M alone or in combination with PIN1 or its mutants W34A or K63A for 24 h, followed by the cyclohexamide chase to assay IRAK-M stability. h Quantification of 3 independent experiments as in g. i IRAK-M or its different mutants; S110A, S110E and P111A were expressed in WT MEFs, followed by the cyclohexamide chase to assay IRAK-M stability. j Quantification of 3 independent experiments as in i. k IRAK-M or its different mutants were stably expressed in DC2.4 cells, followed by the cyclohexamide chase to monitor IRAK-M stability. l Quantification of 3 independent experiments as in k. The data were analyzed by a Student’s two-tailed t test and the values are reported as mean ± standard errors of the means (SEM). *- statistical significance (P < 0.05), **- significance (P < 0.01)

In the next assay the test system is PIN1-IRAK-M interaction. The experiment in a line: Co-immunoprecipitation of PIN1 and IRAK-M. The assay is classed as binding. As to conditions: stably expressing DC2.4 cells, with/without IL-33. The procedure: (§1) Fig. 2 IL-33 induces IRAK-M phosphorylation and binding to PIN1. a GST PIN1 pulldown assay with DC2.4 cell extracts either non-treated or treated with IL-33 (100 ng/ml) or LPS (100ng/ml) for 1 h. […] The cells were washed with fresh medium and treated with 100 ng/ml IL-33 for the indicated times prior to IRAK-M immunoprecipitation. d DC2.4 cells stably expressing IRAK-M were treated with IL-33 and at the indicated time points were subjected to CO-IP using anti-PIN1 antibody and blotted for IRAK-M. e HEK293 cells were transfected with different IRAK-M constructs expressing the N’ terminal domain (aa1-220), the middle portion of the protein (aa220-440) or the C’ terminal domain (aa 440-630), and then treated with IL-33, followed by CO-IP for PIN1. f DC2.4 cells stably expressing IRAK-M were treated with IL-33 and subjected to GST or GST-PIN1 pull-down.
Cells from one 10-cm dish were homogenized in lysis buffer containing 150 mM NaCl, 1% NP-40, 0.5% deoxycholate, 0.1% SDS, 50 mM Tris-HCl (pH 7.7), 1 mM phenylmethylsulfonyl fluoride (PMSF), 1 mM dithiothreitol, and protease inhibitors. Clarified supernatants were incubated with pre incubated immobilized beads rProtein A agarose beads (RepliGen) premixed with PIN1, GFP or IRAK-M antibody or, as a control, IgG overnight at 4 °C. The beads were washed extensively with lysis buffer before elution in SDS sample buffer.

In assay [3] the test system is IRAK-M. As to the kind of experiment: IRAK-M phosphorylation in DC2.4 cells. The assay is classed as cell-based, C57BL/6. As to conditions: DC2.4 stably expressing mutant, IL-33. The procedure:
as §1

B1: S110E: IRAK-M full protein phosphomimetic mutant S110E (protein)
chain: MAGNCGARGALSAHTLLFDLPPALLGELCAVLDSCDGALGWRGLAERLSSSWLDVRHIEKYVDQGKSGTRELLWSWAQKNKTIGDLLQVLQEMGHRRAIHLITNYGAVLEPSEKSYQEGGFPNILFKETANVTVDNVLIPEHNEKGILLKSSISFQNIIEGTRNFHKDFLIGEGEIFEVYRVEIQNLTYAVKLFKQEKKMQCKKHWKRFLSELEVLLLFHHPNILELAAYFTETEKFCLIYPYMRNGTLFDRLQCVGDTAPLPWHIRIGILIGISKAIHYLHNVQPCSVICGSISSANILLDDQFQPKLTDFAMAHFRSHLEHQSCTINMTSSSSKHLWYMPEEYIRQGKLSIKTDVYSFGIVIMEVLTGCRVVLDDPKHIQLRDLLRELMEKRGLDSCLSFLDKKVPPCPRNFSAKLFCLAGRCAATRAKLRPSMDEVLNTLESTQASLYFAEDPPTSLKSFRCPSPLFLENVPSIPVEDDESQNNNLLPSDEGLRIDRMTQKTPFECSQSEVMFLSLDKKPESKRNEEACNMPSSSCEESWFPKYIVPSQDLRPYKVNIDPSSEAPGHSCRSRPVESSCSSKFSWDEYEQYKKE
In the case of B1, in the assay on IRAK-M [1], the “nuclear localization of mutant IRAK-M” value is listed as “higher nuclear localization”. The “resistance of IRAK-M to degradation” value with IRAK-M [2] is recorded as “completely resistant to degradation”. In the assay on PIN1-IRAK-M interaction, the “PIN1 interaction (CO-IP), IRAK-M mutants” value is recorded as “much weaker PIN1 interaction was evident before IL-33 stimulation”.

B2: P111A: IRAK-M mutant that eliminates the PIN1 consensus motif (protein)
chain: MAGNCGARGALSAHTLLFDLPPALLGELCAVLDSCDGALGWRGLAERLSSSWLDVRHIEKYVDQGKSGTRELLWSWAQKNKTIGDLLQVLQEMGHRRAIHLITNYGAVLSASEKSYQEGGFPNILFKETANVTVDNVLIPEHNEKGILLKSSISFQNIIEGTRNFHKDFLIGEGEIFEVYRVEIQNLTYAVKLFKQEKKMQCKKHWKRFLSELEVLLLFHHPNILELAAYFTETEKFCLIYPYMRNGTLFDRLQCVGDTAPLPWHIRIGILIGISKAIHYLHNVQPCSVICGSISSANILLDDQFQPKLTDFAMAHFRSHLEHQSCTINMTSSSSKHLWYMPEEYIRQGKLSIKTDVYSFGIVIMEVLTGCRVVLDDPKHIQLRDLLRELMEKRGLDSCLSFLDKKVPPCPRNFSAKLFCLAGRCAATRAKLRPSMDEVLNTLESTQASLYFAEDPPTSLKSFRCPSPLFLENVPSIPVEDDESQNNNLLPSDEGLRIDRMTQKTPFECSQSEVMFLSLDKKPESKRNEEACNMPSSSCEESWFPKYIVPSQDLRPYKVNIDPSSEAPGHSCRSRPVESSCSSKFSWDEYEQYKKE
For the molecule B2, in the assay with IRAK-M [3], the “IRAK-M phosphorylation (mutant)” value is “totally abolished”. Besides, in the assay with IRAK-M [2], the “decrease of IRAK-M protein stability” value is ~ 50%. For the same molecule, in the assay with PIN1-IRAK-M interaction, the “PIN1 interaction (CO-IP), IRAK-M mutants” value is reported as “totally abolished”.
